Assay [1] concerns the target Toll-like receptor-7 (TLR7) (murine) (UniProt P58681). Nature of the assay: cell-based or functional assay.
Assay [2] concerns macrophages (TNF-α release). Nature of the assay: TNF-α release by LPS-treated macrophages in presence or absence of serum. The format is cell-based. The following applies: serum-free conditions. As to the method: HSP70 used in all assays was purified using LPS-free sterile packaged plastic ware, baked glass ware (420° F. for 4 hours) and using endotoxin-free culture grade reagents to minimize inadvertent LPS contamination. Further, LPS levels and activity in the purified HSPs were quantified and confirmed to be <1 EU/mg of protein. Next, HSPs and LPS were compared for their influence on phagocytosis in presence or absence of serum. These conditions were specifically chosen since LPS-binding protein (LBP), an essential mediator for LPS function, is not present in serum-free conditions. As a control, macrophages were treated with LPS in presence or absence of serum and their ability to elicit TNF-α release was compared (FIG. 3A). […] Briefly, macrophages were treated with HSP70 (100 μg/ml) or LPS (different doses ranging 25 ng-1 μg/ml) in serum-free conditions for 1 hour and a phagocytosis assay was performed. […] The error bar is one standard deviation. The results shown are a cumulative analysis of 3 experiments, 3 wells/group.

Assay [3] deals with full thickness wounds of naïve mice. The assay is described as follows: Adoptive transfer of pre-treated RAW 264.7 macrophages into wounded mice, wound closure. It counts as in vivo. Particulars: 400,000 macrophages pre-treated at 30 μg/dose; day 2 post surgery. On the procedure: Macrophage Cell Culture, Pre-treatment, and Adoptive Transfer. RAW 264.7 macrophages (ATCC) were grown as described by ATCC. Cells were harvested by gently scraping them from the cell culture flasks, centrifuged and washed once in cultured grade PBS. […] They were then washed 3 times with PBS, and were re-suspended to achieve a concentration of 400,000, 40,000, or 4,000 cells per 0.5 ml PBS. Adoptive transfer of these cells was performed by subcutaneous injections in the nape of the neck using a 25-gauge needle in mice that were wounded as previously described. Adoptive transfers were given on days 0, 2 and 4 post-operatively.
Macrophages were treated in vitro with either HSPs or non-HSP controls and transferred into naïve wounded mice (as described in Materials and Methods) to test if HSPs could in part mediate some of their activity through macrophages. […] Data is plotted as average percent wound closure ±SEM on day 2. *P values were obtained using the Student's t-test by comparing HSP treatment to all of the non-HSP control treatments. The least significant P value was reported.
Titratability of adoptive transfer was examined by transferring 4,000, 40,000 or 400,000 macrophages pre-treated as described in Materials and Methods.

The test system of assay [4] is Murine macrophage lines (RAW264.7, J774.A1 or RAW264NO-). The assay is described as follows: Phagocytosis assay in vitro (uptake of Alexa Fluor 488-labeled particles). The format is cell-based. On the procedure:
Phagocytosis Assay in vitro. RAW 264.7, RAW264.7 (NO-) and J774A.1 cells were cultured in DMEM or RPMI (RAW NO-) with 10% FCS, harvested, and washed. 3×10^5 cells/well were incubated in serum-free Earle's minimal essential medium (EMEM) in a 24-well plate for 1 hour at 37° C. Alexa Fluor® 488-labeled particles (inert polystyrene microspheres; or yeast, Saccharomyces cerevisiae or Gram-negative bacteria, Escherichia coli, 40 particles/macrophage) were added and co-incubated in a dark environment for 60 minutes in serum free EMEM with or without HSPs, LPS, or control proteins. At the end of 60 minutes incubation, the plate was covered in a dark container on ice. Specific measures were taken to exclude the fluorescence that resulted from particles that were outside of the cell or sticking to the surface of the cell. […] Specifically, trypan blue (0.8 mg/ml) was added for 60 seconds and plates were analyzed immediately using FluorImager SI (Molecular Dynamics/Amersham). Since the emission of Alexa Fluor® 488, about 519 nm at an excitation of about 490 nm, falls within the absorbance range of trypan blue (475-675 nm), the fluorescence of the sample only represents the intracellular fluorescence. External or surface-bound fluorescence is quenched. Using Student's t test, the results were analyzed and P-values were calculated.
HSP-mediated phagocytosis was quantified by measuring the internalized fluorescence measured by FluorImager SI and Relative Mean Fluorescence Intensity (RMFI) was compared between the treatment groups (as indicated). All the treatment groups were compared to medium alone using the Student's t test and significance denoted by P<0.01. The error bar represents one standard deviation. The results shown are a cumulative analysis of 3 experiments, 3 wells/group.

The next assay has as its system RAW 264.7 macrophages. The assay is described as follows: In vitro macrophage phagocytosis of wound debris. It counts as cell-based, murine. The following applies: RAW264.7, labeled wound debris.
Assay [5] deals with full thickness surgical wounds on the dorsum of BALB/cJ mice. Nature of the assay: Closure of full thickness surgical wounds, percent wound closure. It counts as in vivo. As to the method:
Surgery and Treatment. Mice were anesthetized using Ketamine (2.0 mg/mouse) and Xylazine (0.1 mg/mouse) were administered intraperitoneally (IP) and the dorsal skin was shaved. After sterile prepping of the area, a full thickness circular wound, 8 mm diameter, was made on the dorsal skin using a disposable biopsy punch (Miltex Inc, York, Pa.) on the midline of the dorsum approximately at the iliac crest. The mice were then randomly assigned into the treatment groups. Initial wound measurements were performed while the mice were still anesthetized. Mice were then treated on days 0, 2, 4, and 6 unless otherwise specified. All agents used as treatment were diluted in 0.5 ml of PBS and injected using a 25-gauge needle in the subcutaneous space in the nape of the neck. The surgical procedures, post-operative monitoring, and safety concerns were approved by the Institutional Animal Care and Usage Committee.
Measurements and Analysis. Wound healing of open wounds is a complex process with many parameters to consider. […] The wound surface area was determined by measuring the craniocaudal and lateromedial distances using vernier calipers in perpendicular axis on days 0, 2, 4, 6, 9, and 11 postoperatively unless noted. Changes in wound area were expressed as percent wound closure. Wound closure data was plotted as average percent wound closure ±SEM unless otherwise noted. All calculations and data analysis were performed using Microsoft Excel and Sigma Plot. Sigma Plot was used to perform Student's t-tests for reported P values.
Full thickness surgical wounds were created on the dorsum of BALB/cJ mice as described in Methods. Wounds were made on day 0. Subsequently, the wounds were treated with exogenous injections of HSP70, HSP90, gp96 (30 μg/dose) or buffer administered subcutaneously (SC) on days 0, 2, 4 and 6 following surgery (FIG. 6A). The wounds were measured on days 0, 2, 4, 6, 9, 11 unless otherwise noted. Wounds were measured serially, percent wound closure was calculated and plotted against time in order to quantitate the rate of healing by secondary intention. […] Data is plotted as average percent wound closure ±SEM on days indicated. Two mice from each treatment group (PBS (n=12), HSP70 (n=11), HSP90 (n=12), and gp96 (n=11)) were sacrificed for histology on days 2, 4, and 6 post-surgery (data not shown). The P values obtain using the Student's t-test.
Results are of average percent wound closure ±SEM on day 2 post surgery. The *P values were obtained using the Student's t-test by comparing HSP treatment to all of the non-HSP control treatments. The least significant P value was reported. […] Doses higher than 50 μg/dose were not tested.

A further assay deals with TNF-α. The assay is described as follows: Wound lysate cytokine production (cytometric bead assay), TNF-α. It counts as in vivo, mice. The following applies: SC 30 μg dose. As to the method: Wound and Skin Lysate Cytokine Production. Mice were wounded and treated as stated previously. Wounds were harvested 24 hours after treatment, pulverized in 5 ml of PBS and large debris was removed by straining the wound lysate through a […] mesh strainer. The soluble fraction was then centrifuged for 20 minutes at 14,000 rpm. Protein concentration was then assessed by Bradford assay. Skin samples were taken and processed in the same manner. 250 μg of each sample was then tested for the presence of monocyte chemotactic peptide-1 (MCP-1), tumor necrosis factor-α (TNF-α), and interleukin 6 (IL-6) using the BD Biosciences cytometric bead assay (CBA) mouse inflammatory kit (BD Biosciences Pharmingen, San Diego, and CA.) following the manufacture's protocol.
The wounds were lysed and MCP-1, TNFα and IL-6 levels were quantified (pg/ml of 250 μg of protein). Each sample was tested in duplicate. *P values are the significant difference of cytokines found in wound lysate compared to skin lysate in a treatment group. **P values are the significant differences of cytokines found in PBS treated mice wound lysate compared to the treatment group wound lysate.

Toll-like receptor-7 (TLR7) (murine), sequence (P58681 27-1050): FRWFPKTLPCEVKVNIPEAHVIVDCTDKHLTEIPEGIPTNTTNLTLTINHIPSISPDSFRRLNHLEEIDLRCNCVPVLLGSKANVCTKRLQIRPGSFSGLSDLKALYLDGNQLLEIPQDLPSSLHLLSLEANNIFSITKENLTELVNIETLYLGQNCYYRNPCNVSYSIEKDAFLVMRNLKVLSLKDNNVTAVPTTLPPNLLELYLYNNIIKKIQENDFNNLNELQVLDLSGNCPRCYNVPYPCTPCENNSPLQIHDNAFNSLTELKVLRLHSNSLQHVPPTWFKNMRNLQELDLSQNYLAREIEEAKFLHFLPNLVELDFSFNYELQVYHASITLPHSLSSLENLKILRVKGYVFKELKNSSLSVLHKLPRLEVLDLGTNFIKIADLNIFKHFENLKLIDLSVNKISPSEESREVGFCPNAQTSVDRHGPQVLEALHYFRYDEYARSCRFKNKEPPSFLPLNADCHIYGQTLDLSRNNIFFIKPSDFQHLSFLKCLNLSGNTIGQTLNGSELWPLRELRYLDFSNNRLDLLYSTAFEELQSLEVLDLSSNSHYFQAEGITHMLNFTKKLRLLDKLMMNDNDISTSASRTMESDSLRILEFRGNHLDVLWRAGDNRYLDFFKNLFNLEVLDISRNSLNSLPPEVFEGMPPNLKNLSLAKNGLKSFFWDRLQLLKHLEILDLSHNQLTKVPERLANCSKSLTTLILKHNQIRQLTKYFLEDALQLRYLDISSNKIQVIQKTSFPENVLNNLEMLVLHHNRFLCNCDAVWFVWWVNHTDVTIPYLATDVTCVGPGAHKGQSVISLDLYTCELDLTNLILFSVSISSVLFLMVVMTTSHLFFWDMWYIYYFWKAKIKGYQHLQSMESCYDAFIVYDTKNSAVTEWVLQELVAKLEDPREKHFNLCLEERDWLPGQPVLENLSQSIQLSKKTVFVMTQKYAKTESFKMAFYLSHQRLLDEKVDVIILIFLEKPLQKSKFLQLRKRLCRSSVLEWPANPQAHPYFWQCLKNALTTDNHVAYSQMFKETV

In the case of “HSP70 purified from murine livers (from UniProt P17879 2-642)”, the decrease in phagocytic activity of RAW264.7 cells treated with HSP70 in the presence of known TLR7-ligands, compared with HSP70 alone in assay [1] fell in the range of 45 to 65%.

“lipopolysaccharide [LPS, reference compound]”: the “stimulation of macrophages (TNF-α release)” value in assay [2] is reported as “ineffective at stimulating macrophages”. In assay [3], the “wound healing on day 2 after adoptive transfer of pre-treated macrophages” value was 21%. The “ability to enhance phagocytosis” value in assay [4] (serum-free conditions, 1 hour, HSP70 100 μg/ml, LPS 25 ng-1 μg/ml, heating 100° C. for 20 minutes) is recorded as “unable to enhance phagocytosis in serum-free conditions”. For the same molecule, the “mean fluorescence intensity compared to medium control” value with RAW 264.7 macrophages is “not significantly different to the medium control”. The “wound healing on day 2” value in assay [5] (30 μg/dose, day 2 post surgery) is 25%. For the same molecule, in assay [5] (day 2 post surgery), the “wound closure of non-HSP controls compared to PBS control” value is “not significantly different to the PBS control”. Moreover, the “benefit to the wounds” value in assay [5] (same doses as HSPs and significantly smaller quantities) was “not beneficial to the wounds at any of the doses tested”.

B1: gp96: heat shock protein (HSP90 family, endoplasmic reticulum) purified from murine livers (protein, UniProt P08113 22-802, looked up)
Endoplasmin: DDEVDVDGTVEEDLGKSREGSRTDDEVVQREEEAIQLDGLNASQIRELREKSEKFAFQAEVNRMMKLIINSLYKNKEIFLRELISNASDALDKIRLISLTDENALAGNEELTVKIKCDKEKNLLHVTDTGVGMTREELVKNLGTIAKSGTSEFLNKMTEAQEDGQSTSELIGQFGVGFYSAFLVADKVIVTSKHNNDTQHIWESDSNEFSVIADPRGNTLGRGTTITLVLKEEASDYLELDTIKNLVRKYSQFINFPIYVWSSKTETVEEPLEEDEAAKEEKEESDDEAAVEEEEEEKKPKTKKVEKTVWDWELMNDIKPIWQRPSKEVEEDEYKAFYKSFSKESDDPMAYIHFTAEGEVTFKSILFVPTSAPRGLFDEYGSKKSDYIKLYVRRVFITDDFHDMMPKYLNFVKGVVDSDDLPLNVSRETLQQHKLLKVIRKKLVRKTLDMIKKIADEKYNDTFWKEFGTNIKLGVIEDHSNRTRLAKLLRFQSSHHSTDITSLDQYVERMKEKQDKIYFMAGSSRKEAESSPFVERLLKKGYEVIYLTEPVDEYCIQALPEFDGKRFQNVAKEGVKFDESEKTKESREATEKEFEPLLNWMKDKALKDKIEKAVVSQRLTESPCALVASQYGWSGNMERIMKAQAYQTGKDISTNYYASQKKTFEINPRHPLIRDMLRRIKEDEDDKTVMDLAVVLFETATLRSGYLLPDTKAYGDRIERMLRLSLNIDPEAQVEEEPEEEPEDTSEDAEDSEQDEGEEMDAGTEEEEEETEKESTEKDEL
modifications: complexed with endogenous peptides
notes: heat shock protein (HSP90 family, endoplasmic reticulum) purified from murine livers
Take B1: the “uptake of microbial or non-microbial materials as compared to control proteins or buffer” value in assay [4] (HSPs 100 μg/ml, P<0.01 vs medium alone) was “increase in uptake”. The “wound closure compared to controls” value in assay [5] (5 μg/dose and 50 μg/dose, day 2) is on record as “significant wound closure”. In addition, the “wound healing at Day 11” value in assay [5] (30 μg/dose SC on days 0, 2, 4 and 6) is “completely healed”. In assay [5] (doses 5, 30, 50 μg/dose tested), the “dose with the most significant difference in wound closure” value is on record as 30 μg/dose. Moreover, in the assay with TNF-α, the “TNF-α content of wounds compared to LPS or MSA” value is listed as “not significantly elevated” and the “TNF-α content of wounds compared to buffer group” value is reported as “significantly increased”.
